Experimental data as given in article PMC8156467, “Disruption of YY1-EZH2 Interaction Using Synthetic Peptides Inhibits Breast Cancer Development” (Cancers, 2021).

Tests used:
[1] = biological target: enhancer of zeste homolog 2 (EZH2), endogenous (human (endogenous in MDA-MB-231)) (UniProt Q15910)
[2] = biological target: Yin Yang 1 (YY1), endogenous (human (endogenous in MDA-MB-231)) (UniProt P25490)
Yin Yang 1 (YY1), endogenous (human (endogenous in MDA-MB-231)), sequence (P25490 whole entry): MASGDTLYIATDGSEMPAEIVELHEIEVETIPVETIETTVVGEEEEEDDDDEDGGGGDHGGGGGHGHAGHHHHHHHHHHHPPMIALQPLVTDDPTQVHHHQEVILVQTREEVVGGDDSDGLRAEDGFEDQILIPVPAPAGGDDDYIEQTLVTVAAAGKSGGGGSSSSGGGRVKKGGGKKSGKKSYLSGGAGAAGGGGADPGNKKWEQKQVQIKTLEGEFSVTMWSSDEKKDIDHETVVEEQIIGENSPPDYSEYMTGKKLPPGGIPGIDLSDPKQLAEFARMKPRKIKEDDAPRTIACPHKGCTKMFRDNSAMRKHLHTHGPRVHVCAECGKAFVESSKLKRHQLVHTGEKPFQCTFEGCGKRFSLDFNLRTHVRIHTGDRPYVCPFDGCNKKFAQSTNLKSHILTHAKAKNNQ

enhancer of zeste homolog 2 (EZH2), endogenous (human (endogenous in MDA-MB-231)), sequence (Q15910 whole entry): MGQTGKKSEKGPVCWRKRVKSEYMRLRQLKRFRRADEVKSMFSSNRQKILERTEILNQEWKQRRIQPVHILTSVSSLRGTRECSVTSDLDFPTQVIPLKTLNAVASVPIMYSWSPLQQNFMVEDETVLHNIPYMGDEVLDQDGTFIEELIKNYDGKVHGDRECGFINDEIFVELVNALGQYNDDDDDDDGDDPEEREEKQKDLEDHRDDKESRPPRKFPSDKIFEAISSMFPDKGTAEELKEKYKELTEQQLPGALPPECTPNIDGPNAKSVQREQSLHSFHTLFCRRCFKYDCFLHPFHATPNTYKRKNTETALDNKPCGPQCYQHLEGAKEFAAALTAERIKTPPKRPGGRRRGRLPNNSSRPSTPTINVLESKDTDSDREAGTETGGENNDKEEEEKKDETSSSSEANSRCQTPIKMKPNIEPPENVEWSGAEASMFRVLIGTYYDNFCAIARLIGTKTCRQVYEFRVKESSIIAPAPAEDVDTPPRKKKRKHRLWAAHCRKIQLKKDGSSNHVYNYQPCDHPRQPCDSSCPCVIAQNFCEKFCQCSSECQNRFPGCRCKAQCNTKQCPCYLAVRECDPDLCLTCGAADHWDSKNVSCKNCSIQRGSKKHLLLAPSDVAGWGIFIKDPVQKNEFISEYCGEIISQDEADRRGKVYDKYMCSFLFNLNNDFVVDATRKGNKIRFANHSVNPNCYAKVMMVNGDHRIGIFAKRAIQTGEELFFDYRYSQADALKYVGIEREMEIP
synthetic FITC-TAT-3×Glycine-OPB peptide, sequence (P25490 whole entry): as the sequence (P25490 whole entry) above

Substance: synthetic FITC-TAT-3×Glycine-OPB peptide (from UniProt P25490 201-226)
- IC50 of cell viability (WST-1, 48 h) in MCF-7, MDA-MB-231 and MDA-MB-453 breast cancer cells; the peptide blocks YY1-EZH2 (m1 with m2) [1]: 20 µM

Substance: synthetic FITC-TAT-3×Glycine-YPB peptide (from UniProt Q15910-2 493-519)
- IC50 of cell viability (WST-1, 48 h) in MCF-7, MDA-MB-231 and MDA-MB-453 breast cancer cells; the peptide blocks YY1-EZH2 (m1 with m2) [2]: 20 µM
